Results from patent publication US20260193378A1.

How the values were obtained:
[1] = target: CD19-targeting first-generation 19z1 CAR; test: flow cytometry on CAR+ PG13 fibroblasts, FL2-H PE against FL1-H FITC (no staining), live gate, 7308 events; lower left panel, sample line '19z1-19E9-PE 1 to 1000', same position as 19z1 in FIG. 18A and 18C; first panel (PG13 sample line) in the same gate: 0
[2] = target: first-generation PSMA-targeting Pz1 CAR; test: flow cytometry on CAR+ PG13 fibroblasts, FL2-H PE against FL1-H FITC (no staining), live gate, 9029 events; lower right panel, taken as Pz1 from the panel order of FIG. 18A and 18C; first panel (PG13 sample line) in the same gate: 0
[3] = target: first-generation PSMA-targeting Pz1 CAR; test: flow cytometry on PG13 fibroblasts expressing the Pz1 CAR (panel title 'PZ1', sample line 'PZ1-12D11-H'), 12D11 detected with anti-hamster IgG FITC, FL1-H FITC against FL2-H PE, live gate, 9102 events; parental PG13 cells in the same gate: 0.85
[4] = target: CD19-targeting first-generation 19z1 CAR; test: flow cytometry on PG13 fibroblasts expressing the 19z1 CAR (panel title '19z1', sample line '19z 1-12D11-H'), 12D11 detected with anti-hamster IgG FITC, FL1-H FITC against FL2-H PE, live gate, 7334 events; parental PG13 cells in the same gate: 0.85
[5] = target: CD19-targeting second-generation 1928z CAR; test: flow cytometry on PG13 fibroblasts expressing the 1928z CAR (panel title '19-28z1 cells', sample line '1928z 1-12D11-H'), 12D11 detected with anti-hamster IgG FITC, FL1-H FITC against FL2-H PE, live gate, 9569 events; parental PG13 cells in the same gate: 0.85

| gate frequency (percent of live events in the PE-positive gate) [1] | gate frequency (percent of live events in the PE-positive gate) [2] | gate frequency (percent of live events in the FITC-positive gate) [3] | gate frequency (percent of live events in the FITC-positive gate) [4] | gate frequency (percent of live events in the FITC-positive gate) [5] | Binder |
| --- | --- | --- | --- | --- | --- |
| 99.2 | 0.011 |  |  |  | 19E3 monoclonal antibody (antibody, V domains shown) VH: EVQLVESGGGLVQTGKSLKLSCEASGFTFSDFDMNWVRQAPGKGLEWVAYINGGSGVIFYADAVKGRFTISRDNAKNLLFLQMNNLKSEDSAMYYCAREELGRRYYFDYWGQGTMVTVSS VL: SQPVLTQSPSASASLSGSVKLTCTLSSEHSSYNIAWYQQHPDKAPKYVMYLKSDGSHFKGDGIPDRFSGSSSGAHRYLSISNVQSEDDATYFCGAGYTISGQYGYVFDSGTQLTVLG |
|  |  | 76.4 | 96.3 | 67.9 | 12D11 monoclonal antibody (antibody, V domains shown) VH: AVRLLESGGGLVKPEGALKLSCVASGFDLSDYFMGWVRQAPGKGLEWVAHIYPQSYDYATYYSGSVQGRFTISRDDSRSMVYLQMNNLRTEDTATYYCTKDGDVGFWGQGTMVTVSS VL: DIQVTQSPTLLSASLGDKVTINCLASQDISNELNWYQQKSGQSPTLLIYNGKNLQSGVPSRFSGQYSGRSFTISINNVEPEDVATYFCLQHYSFPLTFGDGSKLEMKR |
